Results reported in paper PMC10902351.

Tests used:
[1] = molecular target: Toxoplasma gondii actin (TgAct1), untagged (Toxoplasma gondii) (UniProt P53476)
[2] = molecular target: Toxoplasma gondii actin (TgAct1), untagged (Toxoplasma gondii) (UniProt P53476); assay: epifluorescence microscopy of single filament growth (in vitro actin growth assay); actin growth assay with inclusion of 0.1 mM AMPPNP, compared to MgATP conditions

## Toxoplasma gondii actin (TgAct1), untagged (from UniProt P53476 1-376) (natural protein)
[1]
  phosphate (Pi) release after inducing polymerization of 12 µM TgAct1, MESG assay, 1-hour time course (phosphates per TgAct1 in 1 hour): 3
[2]
  fold change of the critical concentration with 0.1 mM AMPPNP against MgATP conditions: 2 fold
